Measurements taken from patent US20210024601A1.

Biological target: CD122/CD132 receptor on cells of human PBMCs (human) (UniProt P14784)
Test: cell-based or functional assay

Chain of CD122/CD132 receptor on cells of human PBMCs (human) (P14784 27-551, chain 1 of 2): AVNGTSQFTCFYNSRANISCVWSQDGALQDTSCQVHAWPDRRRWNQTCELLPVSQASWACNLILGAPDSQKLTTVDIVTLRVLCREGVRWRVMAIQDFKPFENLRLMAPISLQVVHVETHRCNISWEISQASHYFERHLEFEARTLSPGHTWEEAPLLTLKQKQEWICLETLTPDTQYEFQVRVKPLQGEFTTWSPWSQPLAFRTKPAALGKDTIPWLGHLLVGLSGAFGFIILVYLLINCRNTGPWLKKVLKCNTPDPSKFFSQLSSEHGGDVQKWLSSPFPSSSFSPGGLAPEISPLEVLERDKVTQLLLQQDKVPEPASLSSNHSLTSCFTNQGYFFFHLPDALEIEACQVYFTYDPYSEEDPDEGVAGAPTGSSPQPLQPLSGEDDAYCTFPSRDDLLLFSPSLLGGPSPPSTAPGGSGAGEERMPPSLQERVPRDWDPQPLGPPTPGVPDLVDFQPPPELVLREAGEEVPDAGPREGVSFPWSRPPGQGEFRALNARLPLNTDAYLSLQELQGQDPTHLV
Chain of CD122/CD132 receptor on cells of human PBMCs (human) (P31785 23-369, chain 2 of 2, further chain): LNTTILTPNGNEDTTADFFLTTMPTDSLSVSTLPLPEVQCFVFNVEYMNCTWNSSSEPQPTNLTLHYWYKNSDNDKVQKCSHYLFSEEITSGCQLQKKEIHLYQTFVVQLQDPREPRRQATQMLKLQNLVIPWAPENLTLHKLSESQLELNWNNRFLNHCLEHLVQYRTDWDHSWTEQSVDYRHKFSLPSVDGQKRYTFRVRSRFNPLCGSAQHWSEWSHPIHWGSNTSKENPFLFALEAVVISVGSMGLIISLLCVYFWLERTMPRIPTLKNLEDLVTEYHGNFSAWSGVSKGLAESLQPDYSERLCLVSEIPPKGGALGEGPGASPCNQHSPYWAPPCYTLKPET

Substance: C-term N88D: irrelevant antibody with IL-2 N88D fused to its C-terminus (IgG-(IL-2N88D)2 of Peterson et al.)
- pSTAT5 EC50, Treg (human PBMCs): 0.37 nM
- pSTAT5 Max. Signal, Treg (normalised to V69A/Q74P): 0.5
